The values below come from paper PMC7611158 (Molecular cancer therapeutics, 2019).

Experiment [1] concerns the target JAG1 (target of the affinity printed for hJ1-65Dv9) (UniProt P78504).
The target in experiment [2] is human JAGGED2 (hJAG2), on transfected HEK293 cells (Homo sapiens, UniProt Q9Y219). The experiment in a line: flow cytometry on cells.
The target of experiment [3] is murine Jagged1 (mJag1), on transfected B16F10 cells (mouse, UniProt Q9QXX0). The experiment in a line: flow cytometry on cells.
The target in experiment [4] is human DLL4 (hDLL4), on transfected B16F10 cells (Homo sapiens, UniProt Q9NR61). As to the kind of experiment: flow cytometry on cells.
A further experiment concerns the target hJAG1 DSL-EGF1-3 protein (Homo sapiens, UniProt P78504). The experiment in a line: SPR.

human JAGGED2 (hJAG2), on transfected HEK293 cells, sequence (Q9Y219 24-1238): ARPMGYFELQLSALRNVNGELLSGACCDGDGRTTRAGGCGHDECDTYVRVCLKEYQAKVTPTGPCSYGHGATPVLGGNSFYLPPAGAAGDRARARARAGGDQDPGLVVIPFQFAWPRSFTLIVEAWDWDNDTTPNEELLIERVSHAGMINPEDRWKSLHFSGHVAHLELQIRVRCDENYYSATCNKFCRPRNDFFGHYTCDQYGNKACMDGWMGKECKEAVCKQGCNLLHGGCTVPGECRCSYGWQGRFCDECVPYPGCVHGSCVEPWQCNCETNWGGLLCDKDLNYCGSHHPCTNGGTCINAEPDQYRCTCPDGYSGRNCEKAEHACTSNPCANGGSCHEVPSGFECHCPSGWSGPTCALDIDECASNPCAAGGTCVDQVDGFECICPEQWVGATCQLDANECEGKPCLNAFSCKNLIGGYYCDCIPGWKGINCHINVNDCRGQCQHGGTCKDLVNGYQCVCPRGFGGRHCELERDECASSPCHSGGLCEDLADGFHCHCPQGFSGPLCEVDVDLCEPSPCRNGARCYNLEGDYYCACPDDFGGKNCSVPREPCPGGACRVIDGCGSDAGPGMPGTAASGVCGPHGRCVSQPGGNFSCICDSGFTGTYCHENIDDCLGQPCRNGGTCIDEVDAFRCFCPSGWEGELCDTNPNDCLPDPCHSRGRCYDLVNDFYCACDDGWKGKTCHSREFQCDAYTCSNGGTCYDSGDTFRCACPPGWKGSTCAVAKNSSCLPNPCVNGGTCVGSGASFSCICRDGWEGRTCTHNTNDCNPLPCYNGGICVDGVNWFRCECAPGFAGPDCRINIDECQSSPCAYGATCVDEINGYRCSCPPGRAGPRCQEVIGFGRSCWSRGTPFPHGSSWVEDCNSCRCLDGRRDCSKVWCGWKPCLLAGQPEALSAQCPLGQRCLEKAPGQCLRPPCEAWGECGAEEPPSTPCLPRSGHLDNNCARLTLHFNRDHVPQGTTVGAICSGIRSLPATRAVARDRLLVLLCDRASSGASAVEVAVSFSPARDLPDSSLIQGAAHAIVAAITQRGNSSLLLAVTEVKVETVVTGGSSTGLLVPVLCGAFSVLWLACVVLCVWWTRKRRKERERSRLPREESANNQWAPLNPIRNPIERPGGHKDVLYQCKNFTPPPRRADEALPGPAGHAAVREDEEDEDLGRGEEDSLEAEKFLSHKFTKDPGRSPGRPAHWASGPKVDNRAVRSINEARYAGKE
human DLL4 (hDLL4), on transfected B16F10 cells, sequence (Q9NR61 27-685, one chain of several): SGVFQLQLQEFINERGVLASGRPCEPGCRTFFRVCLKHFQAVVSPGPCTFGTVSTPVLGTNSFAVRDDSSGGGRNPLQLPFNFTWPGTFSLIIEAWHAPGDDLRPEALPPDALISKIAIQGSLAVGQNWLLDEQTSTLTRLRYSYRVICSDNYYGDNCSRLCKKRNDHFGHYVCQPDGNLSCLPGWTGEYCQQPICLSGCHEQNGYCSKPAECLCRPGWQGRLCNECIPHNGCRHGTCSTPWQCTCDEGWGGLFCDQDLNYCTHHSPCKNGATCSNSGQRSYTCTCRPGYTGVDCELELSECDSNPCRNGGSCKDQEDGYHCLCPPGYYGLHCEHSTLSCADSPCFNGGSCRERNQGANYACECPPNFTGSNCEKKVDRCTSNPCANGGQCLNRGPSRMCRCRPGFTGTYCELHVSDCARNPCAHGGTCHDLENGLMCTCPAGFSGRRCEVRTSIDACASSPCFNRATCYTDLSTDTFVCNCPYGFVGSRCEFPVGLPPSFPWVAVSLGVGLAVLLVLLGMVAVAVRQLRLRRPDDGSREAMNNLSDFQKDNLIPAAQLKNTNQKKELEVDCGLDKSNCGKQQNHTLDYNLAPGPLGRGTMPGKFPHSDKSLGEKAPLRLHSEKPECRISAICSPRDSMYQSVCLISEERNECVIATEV
murine Jagged1 (mJag1), on transfected B16F10 cells, sequence (Q9QXX0 34-1218, one chain of several): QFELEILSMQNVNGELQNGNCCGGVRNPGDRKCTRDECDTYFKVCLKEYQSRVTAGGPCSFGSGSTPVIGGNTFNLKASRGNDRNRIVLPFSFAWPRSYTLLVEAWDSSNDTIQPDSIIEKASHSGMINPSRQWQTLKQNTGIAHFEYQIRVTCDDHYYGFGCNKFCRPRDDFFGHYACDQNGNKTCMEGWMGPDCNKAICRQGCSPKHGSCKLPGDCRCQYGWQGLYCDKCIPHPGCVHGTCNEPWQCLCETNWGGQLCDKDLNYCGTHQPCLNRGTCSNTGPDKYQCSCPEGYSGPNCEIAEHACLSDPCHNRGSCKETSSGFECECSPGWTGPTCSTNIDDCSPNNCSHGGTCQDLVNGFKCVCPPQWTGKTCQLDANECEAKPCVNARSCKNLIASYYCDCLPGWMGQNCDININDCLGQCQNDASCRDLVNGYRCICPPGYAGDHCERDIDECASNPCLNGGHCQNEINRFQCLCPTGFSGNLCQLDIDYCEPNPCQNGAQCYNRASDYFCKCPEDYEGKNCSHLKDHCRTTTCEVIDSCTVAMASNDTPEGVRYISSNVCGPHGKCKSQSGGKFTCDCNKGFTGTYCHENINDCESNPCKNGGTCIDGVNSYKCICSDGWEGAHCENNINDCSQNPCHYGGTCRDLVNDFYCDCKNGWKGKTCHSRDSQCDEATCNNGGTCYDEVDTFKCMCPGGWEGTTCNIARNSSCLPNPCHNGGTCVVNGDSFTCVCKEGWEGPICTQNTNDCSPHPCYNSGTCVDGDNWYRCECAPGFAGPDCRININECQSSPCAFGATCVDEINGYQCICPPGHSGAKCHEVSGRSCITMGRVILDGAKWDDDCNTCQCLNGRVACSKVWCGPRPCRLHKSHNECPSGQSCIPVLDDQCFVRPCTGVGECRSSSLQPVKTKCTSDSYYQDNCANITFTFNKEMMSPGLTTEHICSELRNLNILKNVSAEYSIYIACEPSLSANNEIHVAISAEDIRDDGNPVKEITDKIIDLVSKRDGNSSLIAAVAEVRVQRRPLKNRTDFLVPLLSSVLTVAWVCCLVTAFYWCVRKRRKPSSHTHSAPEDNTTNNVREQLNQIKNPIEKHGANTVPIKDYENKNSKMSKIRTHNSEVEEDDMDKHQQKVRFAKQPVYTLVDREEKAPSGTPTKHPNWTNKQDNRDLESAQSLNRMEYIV
hJAG1 DSL-EGF1-3 protein, sequence (P78504 185-335): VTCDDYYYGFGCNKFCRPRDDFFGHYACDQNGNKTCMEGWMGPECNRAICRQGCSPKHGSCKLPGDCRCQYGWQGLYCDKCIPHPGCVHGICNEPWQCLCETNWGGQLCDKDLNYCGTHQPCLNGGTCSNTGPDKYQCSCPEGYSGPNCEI
JAG1 (target of the affinity printed for hJ1-65Dv9), sequence (P78504 34-1218): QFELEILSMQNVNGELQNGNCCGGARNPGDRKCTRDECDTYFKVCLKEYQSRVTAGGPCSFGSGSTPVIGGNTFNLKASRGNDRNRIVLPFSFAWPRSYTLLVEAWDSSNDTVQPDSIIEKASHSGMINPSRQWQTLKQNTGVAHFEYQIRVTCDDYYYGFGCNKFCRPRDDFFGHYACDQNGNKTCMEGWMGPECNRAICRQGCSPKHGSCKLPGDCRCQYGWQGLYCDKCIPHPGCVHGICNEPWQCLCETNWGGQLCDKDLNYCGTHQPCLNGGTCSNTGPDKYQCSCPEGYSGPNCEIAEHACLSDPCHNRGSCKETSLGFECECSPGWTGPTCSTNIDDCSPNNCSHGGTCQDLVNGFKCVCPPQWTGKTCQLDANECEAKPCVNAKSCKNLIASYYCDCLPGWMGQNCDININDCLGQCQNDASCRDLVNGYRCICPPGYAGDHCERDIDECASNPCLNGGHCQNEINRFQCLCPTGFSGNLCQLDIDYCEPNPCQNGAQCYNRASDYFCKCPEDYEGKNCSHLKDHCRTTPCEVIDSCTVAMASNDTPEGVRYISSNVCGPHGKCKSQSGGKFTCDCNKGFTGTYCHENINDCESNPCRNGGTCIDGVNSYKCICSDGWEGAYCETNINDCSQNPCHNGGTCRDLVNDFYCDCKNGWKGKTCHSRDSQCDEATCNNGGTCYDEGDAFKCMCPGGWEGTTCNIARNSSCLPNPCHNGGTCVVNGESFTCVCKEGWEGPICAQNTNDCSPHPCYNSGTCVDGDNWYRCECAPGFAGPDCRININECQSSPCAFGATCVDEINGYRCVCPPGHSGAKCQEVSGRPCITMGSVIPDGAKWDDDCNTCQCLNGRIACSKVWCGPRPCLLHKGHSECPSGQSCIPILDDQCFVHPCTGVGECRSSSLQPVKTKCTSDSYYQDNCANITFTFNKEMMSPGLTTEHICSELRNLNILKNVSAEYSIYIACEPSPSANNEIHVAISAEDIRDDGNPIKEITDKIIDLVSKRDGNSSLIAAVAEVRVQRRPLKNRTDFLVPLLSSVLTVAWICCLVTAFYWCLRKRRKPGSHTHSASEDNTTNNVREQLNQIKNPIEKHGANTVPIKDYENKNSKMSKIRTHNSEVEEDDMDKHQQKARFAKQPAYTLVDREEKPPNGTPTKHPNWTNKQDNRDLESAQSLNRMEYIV

B1: hJ1-65Dv9 (antibody, V domains shown)
VH: QVQLVQSGAELKKPGSSVKVSCKASGYTFTDYEMHWVRQAPGQGLEWMGAIQPGGGGTAYNQKFKGRVTLTADKSTSTAYMELSSLRSEDTAVYYCTRRGYDDYPFAYWGQGTLVTVSS
VL: DIQMTQSPSSLSASVGDRVTITCRASGNIHNYLAWYQQKPGKAPKLLIYNAKTLADAVPSRFSGSGSGTDYTLTISSLQPEDFATYYCQHFWSAPWTFGQGTKLEIK
In turn, B1 registered a dissociation constant Kd in experiment [1] of 0.0139 nM.

B2: J1-65D (antibody, V domains shown)
VH: QVQLQQPGAELVRPGASVKLSCKALGYTFTDYEMHWVKETPVHGLEWIGAIQPGGGGTAYNQKFKGKATLTADKSSSTAYMELSSLTSEDSAVYYCTRRGYDDYPFAYWGQGTLVTVSS
VL: DIQLTQSPASLSASVGETVTITCRASGNIHNYLAWYQQKQGKSPQLLVYNAKTLADDIPSRFSGSGSGTQYSLKINSLQPEDFGSYYCQHFWSAPWTFGGGTKLEIK
Turning to B2, the binding result in experiment [2], in experiment [3] and in experiment [4] was “no binding” each time. In addition, the affinity in the experiment with hJAG1 DSL-EGF1-3 protein, expressed as Kd, was 9.7 nM.

B3: J1-183D (antibody, V domains shown)
VH: QVQLQQPGTELVRPGVSVKISCKVSGYAFTDYAIHWIMQSHAKSLEWIGIINTYYGDSKYNQKFKDKATMTVDKSSNTAYMELARLTSEDSAIYYCARGYDGFAYWGQGTLVTVSS
VL: DIQLTQSPASLSASVGETVTFTCRTSENIYSYLTWYQQKQGKSPQLLVYNAKILAAGVPSRFSGYGSGTQFSLKINSLQPEDFGTYYCQHHYDIPWTFGGGTKLEIK
B3: the binding result in experiment [2], in experiment [3] and in experiment [4] was “no binding” in each case. The same molecule gave a Kd with hJAG1 DSL-EGF1-3 protein of 4.9 nM.
